The text below walks through data of patent US20180142000A1.

The target in assay [1] is C. jejuni (strain 81-176) flagella (Campylobacter jejuni strain 81-176). The experiment in a line: ELISA on coated flagella, approximate affinity. (In an ELISA, binding on a coated surface is turned into a signal by an enzyme label.)
Assay [2] has the same target. Nature of the assay: SPR (Biacore 3000), single-cycle kinetics, […]. In general terms: Surface plasmon resonance follows binding to a sensor surface in real time, without labels.
Assay [3] shares this target.

“And” between values parts separate entries of the source, which are not always exact repeats. Equal values may be shown once. Read-outs that look alike come from different tables or passages of the source.

B1: FlagV1M (VHH)
VHH: QVKLEESGGGLVQAGGSRRLSCATSGLTFRNFHMAWFRQVAGKEREVVAAISWSRDRQYYPDPVKGRFTITRDNAKNTVYLQMNSLKPEDTAVYYCAARTASASGDWYKGSYQYWGQGTQVTVSS
Regarding B1, the dissociation constant Kd (as a rule, a measure of binding affinity in units of concentration) in assay [1] was 20 nM and 30 nM. For the same molecule, in assay [2], the equilibrium dissociation constant (Kd) is 23.9 nM; the koff (commonly a measure of how fast the partners let go of each other) was found to be 0.00563 s⁻¹; the kon (as a rule, the second-order rate constant of association) turned out to be 236000 M⁻¹ s⁻¹.

B2: FlagV1F23M (VHH)
VHH: QVQLVESGGGLVQAGGSRRLSCATSGLTFRNFHMAWFRQVAGKEREVVAAISWSRDRQYYPDPVKGRFTITRDNAKNTVYLQMNSLKPEDTAVYYCAARTASASGDWYKGSYQYWGQGTQVTVSS
Consider B2, for which, in assay [2], the Kd worked out at 18.6 nM, the koff turned out to be 0.00426 s⁻¹ and the kon came out at 229000 M⁻¹ s⁻¹.

B3: FlagV1F23MDSB (VHH)
VHH: QVQLVESGGGLVQAGGSRRLSCATSGLTFRNFHMAWFRQVAGKEREVVCAISWSRDRQYYPDPVKGRFTCTRDNAKNTVYLQMNSLKPEDTAVYYCAARTASASGDWYKGSYQYWGQGTQVTVSS
Turning to B3, in assay [2], the Kd was found to be 17.3 nM, the off-rate constant (koff) was found to be 0.00286 s⁻¹ and the kon worked out at 165000 M⁻¹ s⁻¹.

B4: FlagV1MDSB (VHH)
VHH: QVKLEESGGGLVQAGGSRRLSCATSGLTFRNFHMAWFRQVAGKEREVVCAISWSRDRQYYPDPVKGRFTCTRDNAKNTVYLQMNSLKPEDTAVYYCAARTASASGDWYKGSYQYWGQGTQVTVSS
For the molecule B4, in assay [2], the Kd came out at 18.2 nM, the koff stood at 0.0028 s⁻¹ and the kon is 153000 M⁻¹ s⁻¹.

B5: FlagV6M (VHH)
VHH: QVKLEESGGGLVQAGGSLRVSCTASVSTFSINALGWYRQAPGKARELVAAIGSDGTVYYTDSVKGRFTISRDNAKNTVSLQMSSLKPEDTAVYYCNAAGKRIGSDGSIWFAVASFGSWGQGTQVTVSS
In assay [3], B5 had a Kd of 25 nM, a koff of 0.03 s⁻¹ and an on-rate (kon) of 1e+06 M⁻¹ s⁻¹.
